Test results from paper PMC8780864, “Experimental Evidence of Intrinsic Disorder and Amyloid Formation by the Henipavirus W Proteins” (International Journal of Molecular Sciences, 2022).

Experiments:
[1] = target: Nipah virus (Malaysia strain) W protein, N-terminally hexahistidine tagged (from pDEST17OI/NiVW) (Nipah virus (Malaysia strain)) (UniProt P0C1C7); test: SEC
[2] = target: Nipah virus (Malaysia strain) W protein, N-terminally hexahistidine tagged (from pDEST17OI/NiVW) (Nipah virus (Malaysia strain)) (UniProt P0C1C7); test: MALDI-TOF MS of the intact protein
[3] = target: the molecule itself; test: MALDI-TOF MS of the intact protein

Nipah virus (Malaysia strain) W protein, N-terminally hexahistidine tagged (from pDEST17OI/NiVW) (from UniProt P0C1C7 1-450) (natural protein)
stoichiometry N [1]: 2
stoichiometry N [2]: 2

B1: Hendra virus W protein, N-terminally hexahistidine tagged (from pDEST17OI/HeVW) (natural protein)
chain: MDKLDLVNDGLDIIDFIQKNQKEIQKTYGRSSIQQPSTKDRTRAWEDFLQSTSGEHEQAEGGMPKNDGGTEGRNVEDLSSVTSSDGTIGQRVSNTRAWAEDPDDIQLDPMVTDVVYHDHGGECTGHGPSSSPERGWSYHMSGTHDGNVRAVPDTKVLPNAPKTTVPEEVREIDLIGLEDKFASAGLNPAAVPFVPKNQSTPTEEPPVIPEYYYGSGRRGDLSKSPPRGNVNLDSIKIYTSDDEDENQLEYEDEFAKSSSEVVIDTTPEDNDSINQEEVVGDPSDQGLEHPFPLGKFPEKEETPDVRRKDSLMQDSCKRGGVPKRLPMLSEEFECSGSDDPIIQELEREGSHPGGSLRLREPPQSSGNSRNQPDRQLKTGDAASPGGVQRPGTPMPKSRIMPIKKGAQTRSLNMLGRKTCLGRRVVQPGMFADYPPTKKARVLLRRMSN
notes: not shown: His6, N-terminal, kept
stoichiometry N [3]: 2
